Results published in paper doi:10.1101/2020.07.24.219956.

Columns and labels:
[1] = target: Human neutrophil-derived myeloperoxidase (human) (UniProt P05164); experiment: native MS
[2] = target: Human neutrophil-derived myeloperoxidase (human) (UniProt P05164); experiment: mass photometry

stoichiometry N [1]: 2
Kd [2]: 0.05 nM
percent diprotomer (ααββ) [2]: 93%
percent monoprotomer (αβ) [2]: 7%
stoichiometry N [2]: 2
Substance: Human neutrophil-derived myeloperoxidase (from UniProt P05164 279-745; P05164 279-745) (enzyme)
